Values joined by “and” are separate entries in the source; they are usually repeats but may differ in a detail not shown here. Identical values can stand only once.
B1: Lysozyme C, P61626 (parent)
chain: MKALIVLGLVLLSVTVQGKVFERCELARTLKRLGMDGYRGISLANWMCLAKWESGYNTRATNYNAGDRSTDYGIFQINSRYWCNDGKTPGAVNACHLSCSALLQDNIADAVACAKRVVRDPQGIRAWVAWRNRCQNRDVRQYVQGCGV

Variants of: B1
Conditions: Homo sapiens; pH 2.5; Thermal; DSC; Gly-HCl 0.05 M; reversible: yes; structure 1LZ1; whole UniProt chain shown

Row | Variant | Tm | unfolding enthalpy (calorimetric) | unfolding enthalpy (van 't Hoff)
1 | H96A | 61.1 °C | 97.5 kcal/mol | 107 kcal/mol
2 | R39G | 64.6 °C | 102 kcal/mol | 107 kcal/mol
3 | Q76A | 64.5 °C | 97 kcal/mol | 103 kcal/mol
4 | R68A | 62.8 °C | 101 kcal/mol | 108 kcal/mol
5 | Y56G | 53 °C | 85.8 kcal/mol | 87 kcal/mol

Same assay, conditions: Homo sapiens; pH 2.7; 64.9 °C; Thermal; DSC; Gly-HCl 0.05 M; reversible: yes; structure 1LZ1; whole UniProt chain shown

Row | Variant | ddG of mutation (higher = less stable)
6 | H96A | 0.14 kcal/mol
7 | N136A | -0.19 kcal/mol
8 | N136G | -0.05 kcal/mol
9 | R39G | -1.15 kcal/mol
10 | Q76A | -0.91 kcal/mol
11 | R68A | -0.43 kcal/mol
12 | Y56A | 2.49 kcal/mol
13 | Y56G | 2.32 kcal/mol

Same assay, conditions: Homo sapiens; pH 2.7; Thermal; DSC; Gly-HCl 0.05 M; reversible: yes; structure 1LZ1; whole UniProt chain shown

Row | Variant | Tm | change of melting temperature, mutant - wild type (higher = more stable) | heat capacity change of unfolding | unfolding enthalpy (calorimetric) | unfolding enthalpy (van 't Hoff)
14 | H96A | 64.3 °C and 64.4 °C | -0.5 °C | 1.51 kcal/mol/K | 103 kcal/mol | 112 kcal/mol
15 | N136A | 65.5 °C | 0.6 °C | 1.24 kcal/mol/K | 104 kcal/mol | –
16 | N136G | 65.1 °C | 0.2 °C | 1.65 kcal/mol/K | 101 kcal/mol | –
17 | R39G | 68.6 °C | 3.7 °C | 1.74 kcal/mol/K | 103 kcal/mol | –
18 | R39A | 69.4 °C | 4.5 °C | 1.82 kcal/mol/K | 96.6 kcal/mol | –
19 | Q76A | 67.8 °C and 68 °C | 3.1 °C | 1.65 kcal/mol/K | 104 kcal/mol and 98.2 kcal/mol | 113 kcal/mol
20 | R68A | 66.3 °C | 1.4 °C | 1.51 kcal/mol/K | 104 kcal/mol | –
21 | Y56A | 56 °C | -8.9 °C | 0.98 kcal/mol/K | 96.8 kcal/mol | –
22 | Y56G | 56.7 °C | -8.2 °C | 0.96 kcal/mol/K | 96.8 kcal/mol | –

Same assay, conditions: Homo sapiens; pH 3; Thermal; DSC; Gly-HCl 0.05 M; reversible: yes; structure 1LZ1; whole UniProt chain shown

Row | Variant | Tm | unfolding enthalpy (calorimetric) | unfolding enthalpy (van 't Hoff)
23 | H96A | 69.5 °C | 110 kcal/mol | 117 kcal/mol
24 | R68A | 70.9 °C | 114 kcal/mol | 121 kcal/mol
25 | Y56A | 61.7 °C | 94.4 kcal/mol | 96.3 kcal/mol

Same assay, conditions: Homo sapiens; pH 2.51; Thermal; DSC; Gly-HCl 0.05 M; reversible: yes; structure 1LZ1; whole UniProt chain shown

Row | Variant | Tm | unfolding enthalpy (calorimetric) | unfolding enthalpy (van 't Hoff)
26 | N136A | 62.1 °C | 99.9 kcal/mol | 106 kcal/mol
27 | R39A | 66.1 °C | 98.7 kcal/mol | 107 kcal/mol

Same assay, conditions: Homo sapiens; pH 2.74; Thermal; DSC; Gly-HCl 0.05 M; reversible: yes; structure 1LZ1; whole UniProt chain shown

Row | Variant | Tm | unfolding enthalpy (calorimetric) | unfolding enthalpy (van 't Hoff)
28 | N136A | 66.2 °C | 107 kcal/mol | 112 kcal/mol
29 | N136G | 65.7 °C | 103 kcal/mol | 110 kcal/mol

Same assay, conditions: Homo sapiens; pH 2.87; Thermal; DSC; Gly-HCl 0.05 M; reversible: yes; structure 1LZ1; whole UniProt chain shown

Row | Variant | Tm | unfolding enthalpy (calorimetric) | unfolding enthalpy (van 't Hoff)
30 | N136A | 68.6 °C | 109 kcal/mol | 117 kcal/mol

Same assay, conditions: Homo sapiens; pH 3.02; Thermal; DSC; Gly-HCl 0.05 M; reversible: yes; structure 1LZ1; whole UniProt chain shown

Row | Variant | Tm | unfolding enthalpy (calorimetric) | unfolding enthalpy (van 't Hoff)
31 | N136A | 70.9 °C | 111 kcal/mol | 118 kcal/mol

Same assay, conditions: Homo sapiens; pH 2.95; Thermal; DSC; Gly-HCl 0.05 M; reversible: yes; structure 1LZ1; whole UniProt chain shown

Row | Variant | Tm | unfolding enthalpy (calorimetric) | unfolding enthalpy (van 't Hoff)
32 | N136G | 69.3 °C | 107 kcal/mol | 115 kcal/mol

Same assay, conditions: Homo sapiens; pH 3.1; Thermal; DSC; Gly-HCl 0.05 M; reversible: yes; structure 1LZ1; whole UniProt chain shown

Row | Variant | Tm | unfolding enthalpy (calorimetric) | unfolding enthalpy (van 't Hoff)
33 | N136G | 71.6 °C | 113 kcal/mol | 119 kcal/mol
34 | Q76A | 75.1 °C | 115 kcal/mol | 123 kcal/mol

Same assay, conditions: Homo sapiens; pH 2.69; Thermal; DSC; Gly-HCl 0.05 M; reversible: yes; structure 1LZ1; whole UniProt chain shown

Row | Variant | Tm | unfolding enthalpy (calorimetric) | unfolding enthalpy (van 't Hoff)
35 | R39G | 68.2 °C | 109 kcal/mol | 113 kcal/mol

Same assay, conditions: Homo sapiens; pH 2.81; Thermal; DSC; Gly-HCl 0.05 M; reversible: yes; structure 1LZ1; whole UniProt chain shown

Row | Variant | Tm | unfolding enthalpy (calorimetric) | unfolding enthalpy (van 't Hoff)
36 | R39G | 70.9 °C | 113 kcal/mol | 116 kcal/mol

Same assay, conditions: Homo sapiens; pH 2.71; Thermal; DSC; Gly-HCl 0.05 M; reversible: yes; structure 1LZ1; whole UniProt chain shown

Row | Variant | Tm | unfolding enthalpy (calorimetric) | unfolding enthalpy (van 't Hoff)
37 | R39A | 69.8 °C | 106 kcal/mol | 113 kcal/mol
38 | R68A | 66.6 °C | 106 kcal/mol | 113 kcal/mol

Same assay, conditions: Homo sapiens; pH 3.23; Thermal; DSC; Gly-HCl 0.05 M; reversible: yes; structure 1LZ1; whole UniProt chain shown

Row | Variant | Tm | unfolding enthalpy (calorimetric) | unfolding enthalpy (van 't Hoff)
39 | R39A | 77.6 °C | 120 kcal/mol | 129 kcal/mol

Same assay, conditions: Homo sapiens; pH 2.84; Thermal; DSC; Gly-HCl 0.05 M; reversible: yes; structure 1LZ1; whole UniProt chain shown

Row | Variant | Tm | unfolding enthalpy (calorimetric) | unfolding enthalpy (van 't Hoff)
40 | R68A | 69.1 °C | 109 kcal/mol | 117 kcal/mol

Same assay, conditions: Homo sapiens; pH 2.72; Thermal; DSC; Gly-HCl 0.05 M; reversible: yes; structure 1LZ1; whole UniProt chain shown

Row | Variant | Tm | unfolding enthalpy (calorimetric) | unfolding enthalpy (van 't Hoff)
41 | Y56A | 56.3 °C | 88 kcal/mol | 89.2 kcal/mol

Same assay, conditions: Homo sapiens; pH 3.18; Thermal; DSC; Gly-HCl 0.05 M; reversible: yes; structure 1LZ1; whole UniProt chain shown

Row | Variant | Tm | unfolding enthalpy (calorimetric) | unfolding enthalpy (van 't Hoff)
42 | Y56A | 65 °C | 96.3 kcal/mol | 97.5 kcal/mol

Same assay, conditions: Homo sapiens; pH 2.78; Thermal; DSC; Gly-HCl 0.05 M; reversible: yes; structure 1LZ1; whole UniProt chain shown

Row | Variant | Tm | unfolding enthalpy (calorimetric) | unfolding enthalpy (van 't Hoff)
43 | Y56G | 58.5 °C | 90.1 kcal/mol | 92.3 kcal/mol

Same assay, conditions: Homo sapiens; pH 3.24; Thermal; DSC; Gly-HCl 0.05 M; reversible: yes; structure 1LZ1; whole UniProt chain shown

Row | Variant | Tm | unfolding enthalpy (calorimetric) | unfolding enthalpy (van 't Hoff)
44 | Y56G | 65.6 °C | 97.8 kcal/mol | 99.7 kcal/mol

From FireProtDB (doi:10.1002/prot.1088)
